Measurements published in publication PMC4153296, “Mutant Taq DNA polymerases with improved elongation ability as a useful reagent for genetic engineering”.

Key:
[1] = target: chimeric Taq 29-1 (Thermus aquaticus / environmental DNA chimera) (UniProt P19821); assay: EMSA; settings: EMSA: 3 nM DNA, 20 mM Tris-HCl pH 8.8, 10 mM NaCl, 5 mM MgCl2, 14 mM 2-mercaptoethanol, 0.1 mg/ml BSA, 5% glycerol, 40 C, 5 min; 1% agarose gel
[2] = target: chimeric Taq 8-1 (Thermus aquaticus / environmental DNA chimera) (UniProt P19821); assay: EMSA; settings: EMSA: 3 nM DNA, 20 mM Tris-HCl pH 8.8, 10 mM NaCl, 5 mM MgCl2, 14 mM 2-mercaptoethanol, 0.1 mg/ml BSA, 5% glycerol, 40 C, 5 min; 1% agarose gel
Chain of chimeric Taq 8-1 (Thermus aquaticus / environmental DNA chimera) (P19821 whole entry, change not shown): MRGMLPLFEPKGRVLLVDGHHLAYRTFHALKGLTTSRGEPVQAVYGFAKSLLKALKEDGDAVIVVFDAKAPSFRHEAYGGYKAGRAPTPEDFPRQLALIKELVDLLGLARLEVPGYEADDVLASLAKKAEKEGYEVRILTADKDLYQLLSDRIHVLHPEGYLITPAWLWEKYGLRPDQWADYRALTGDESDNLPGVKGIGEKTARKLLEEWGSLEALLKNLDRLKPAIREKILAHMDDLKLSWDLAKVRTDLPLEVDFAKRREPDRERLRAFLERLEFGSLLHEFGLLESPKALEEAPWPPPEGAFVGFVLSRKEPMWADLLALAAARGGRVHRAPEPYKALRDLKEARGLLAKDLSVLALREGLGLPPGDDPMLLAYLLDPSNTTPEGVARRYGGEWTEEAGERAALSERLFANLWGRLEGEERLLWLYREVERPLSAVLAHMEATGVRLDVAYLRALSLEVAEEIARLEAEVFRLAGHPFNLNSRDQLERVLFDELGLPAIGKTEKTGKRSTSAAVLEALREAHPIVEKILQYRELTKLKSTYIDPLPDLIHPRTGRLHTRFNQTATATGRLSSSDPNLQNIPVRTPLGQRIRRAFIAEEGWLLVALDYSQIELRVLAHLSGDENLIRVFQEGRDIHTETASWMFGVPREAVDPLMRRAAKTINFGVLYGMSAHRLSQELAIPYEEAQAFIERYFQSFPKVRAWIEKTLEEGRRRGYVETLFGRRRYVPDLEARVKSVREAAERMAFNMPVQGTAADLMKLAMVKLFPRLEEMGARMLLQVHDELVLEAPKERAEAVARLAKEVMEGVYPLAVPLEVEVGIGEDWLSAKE

[3] = target: chimeric Taq 7-1 (Thermus aquaticus / environmental DNA chimera) (UniProt P19821); assay: EMSA; settings: EMSA: 3 nM DNA, 20 mM Tris-HCl pH 8.8, 10 mM NaCl, 5 mM MgCl2, 14 mM 2-mercaptoethanol, 0.1 mg/ml BSA, 5% glycerol, 40 C, 5 min; 1% agarose gel
Chain of chimeric Taq 7-1 (Thermus aquaticus / environmental DNA chimera) (P19821 whole entry, change not shown): as above

[4] = target: chimeric Taq 1-2 (Thermus aquaticus / environmental DNA chimera) (UniProt P19821); assay: EMSA; settings: EMSA: 3 nM DNA, 20 mM Tris-HCl pH 8.8, 10 mM NaCl, 5 mM MgCl2, 14 mM 2-mercaptoethanol, 0.1 mg/ml BSA, 5% glycerol, 40 C, 5 min; 1% agarose gel
Chain of chimeric Taq 1-2 (Thermus aquaticus / environmental DNA chimera) (P19821 whole entry, change not shown): as above

[5] = target: chimeric Taq 1-1 (Thermus aquaticus / environmental DNA chimera) (UniProt P19821); assay: EMSA; settings: EMSA: 3 nM DNA, 20 mM Tris-HCl pH 8.8, 10 mM NaCl, 5 mM MgCl2, 14 mM 2-mercaptoethanol, 0.1 mg/ml BSA, 5% glycerol, 40 C, 5 min; 1% agarose gel
Chain of chimeric Taq 1-1 (Thermus aquaticus / environmental DNA chimera) (P19821 whole entry, change not shown): as above

[6] = target: chimeric Taq 4-1 (Thermus aquaticus / environmental DNA chimera) (UniProt P19821); assay: EMSA; settings: EMSA: 3 nM DNA, 20 mM Tris-HCl pH 8.8, 10 mM NaCl, 5 mM MgCl2, 14 mM 2-mercaptoethanol, 0.1 mg/ml BSA, 5% glycerol, 40 C, 5 min; 1% agarose gel
Chain of chimeric Taq 4-1 (Thermus aquaticus / environmental DNA chimera) (P19821 whole entry, change not shown): as above

[7] = target: chimeric Taq 30-1 (Thermus aquaticus / environmental DNA chimera) (UniProt P19821); assay: EMSA; settings: EMSA: 3 nM DNA, 20 mM Tris-HCl pH 8.8, 10 mM NaCl, 5 mM MgCl2, 14 mM 2-mercaptoethanol, 0.1 mg/ml BSA, 5% glycerol, 40 C, 5 min; 1% agarose gel
Chain of chimeric Taq 30-1 (Thermus aquaticus / environmental DNA chimera) (P19821 whole entry, change not shown): as above

[8] = target: chimeric Taq 10-1 (Thermus aquaticus / environmental DNA chimera) (UniProt P19821); assay: EMSA; settings: EMSA: 3 nM DNA, 20 mM Tris-HCl pH 8.8, 10 mM NaCl, 5 mM MgCl2, 14 mM 2-mercaptoethanol, 0.1 mg/ml BSA, 5% glycerol, 40 C, 5 min; 1% agarose gel
Chain of chimeric Taq 10-1 (Thermus aquaticus / environmental DNA chimera) (P19821 whole entry, change not shown): as above

[9] = target: chimeric Taq 12-1 (Thermus aquaticus / environmental DNA chimera) (UniProt P19821); assay: EMSA; settings: EMSA: 3 nM DNA, 20 mM Tris-HCl pH 8.8, 10 mM NaCl, 5 mM MgCl2, 14 mM 2-mercaptoethanol, 0.1 mg/ml BSA, 5% glycerol, 40 C, 5 min; 1% agarose gel
Chain of chimeric Taq 12-1 (Thermus aquaticus / environmental DNA chimera) (P19821 whole entry, change not shown): as above

[10] = target: chimeric Taq 4-2 (Thermus aquaticus / environmental DNA chimera) (UniProt P19821); assay: EMSA; settings: EMSA: 3 nM DNA, 20 mM Tris-HCl pH 8.8, 10 mM NaCl, 5 mM MgCl2, 14 mM 2-mercaptoethanol, 0.1 mg/ml BSA, 5% glycerol, 40 C, 5 min; 1% agarose gel
Chain of chimeric Taq 4-2 (Thermus aquaticus / environmental DNA chimera) (P19821 whole entry, change not shown): as above

[11] = target: chimeric Taq 7-3 (Thermus aquaticus / environmental DNA chimera) (UniProt P19821); assay: EMSA; settings: EMSA: 3 nM DNA, 20 mM Tris-HCl pH 8.8, 10 mM NaCl, 5 mM MgCl2, 14 mM 2-mercaptoethanol, 0.1 mg/ml BSA, 5% glycerol, 40 C, 5 min; 1% agarose gel
Chain of chimeric Taq 7-3 (Thermus aquaticus / environmental DNA chimera) (P19821 whole entry, change not shown): as above

[12] = target: chimeric Taq 8-2 (Thermus aquaticus / environmental DNA chimera) (UniProt P19821); assay: EMSA; settings: EMSA: 3 nM DNA, 20 mM Tris-HCl pH 8.8, 10 mM NaCl, 5 mM MgCl2, 14 mM 2-mercaptoethanol, 0.1 mg/ml BSA, 5% glycerol, 40 C, 5 min; 1% agarose gel
Chain of chimeric Taq 8-2 (Thermus aquaticus / environmental DNA chimera) (P19821 whole entry, change not shown): as above

[13] = target: chimeric Taq 7-2 (Thermus aquaticus / environmental DNA chimera) (UniProt P19821); assay: EMSA; settings: EMSA: 3 nM DNA, 20 mM Tris-HCl pH 8.8, 10 mM NaCl, 5 mM MgCl2, 14 mM 2-mercaptoethanol, 0.1 mg/ml BSA, 5% glycerol, 40 C, 5 min; 1% agarose gel
Chain of chimeric Taq 7-2 (Thermus aquaticus / environmental DNA chimera) (P19821 whole entry, stated change not applied): as the sequence (P19821 whole entry, change not shown) above

[14] = target: TaqEH (Thermus aquaticus, UniProt P19821 1-832, A743H); assay: EMSA; 5 mM Mg2+; apparent Kd; EMSA: 3 nM DNA, 20 mM Tris-HCl pH 8.8, 10 mM NaCl, 5 mM MgCl2, 14 mM 2-mercaptoethanol, 0.1 mg/ml BSA, 5% glycerol, 40 C, 5 min; 1% agarose gel; settings: protein: recombinant; label: 32P on 27mer; primer-template; 27 bp duplex, 5' overhang 22 nt on the 49mer template
Chain of TaqEH (P19821 whole entry A743H): as the sequence (P19821 whole entry, change not shown) above, with A743H counted along it

[15] = target: TaqRR (Thermus aquaticus, UniProt P19821 1-832, E742R;A743R); assay: as above; settings: protein: recombinant; label: 32P on 27mer; primer-template; 27 bp duplex, 5' overhang 22 nt on the 49mer template
Chain of TaqRR (P19821 whole entry E742R/A743R): as the sequence (P19821 whole entry, change not shown) above, with E742R, A743R counted along it

[16] = target: TaqAH (Thermus aquaticus, UniProt P19821 1-832, E742A;A743H); assay: as above; settings: protein: recombinant; label: 32P on 27mer; primer-template; 27 bp duplex, 5' overhang 22 nt on the 49mer template
Chain of TaqAH (P19821 whole entry E742A/A743H): as the sequence (P19821 whole entry, change not shown) above, with E742A, A743H counted along it

[17] = target: TaqAR (Thermus aquaticus, UniProt P19821 1-832, E742A;A743R); assay: as above; settings: protein: recombinant; label: 32P on 27mer; primer-template; 27 bp duplex, 5' overhang 22 nt on the 49mer template
Chain of TaqAR (P19821 whole entry E742A/A743R): as the sequence (P19821 whole entry, change not shown) above, with E742A, A743R counted along it

[18] = target: Taq DNA polymerase WT (TaqEA) (Thermus aquaticus, UniProt P19821 1-832); assay: as above; settings: protein: recombinant; label: 32P on 27mer; primer-template; 27 bp duplex, 5' overhang 22 nt on the 49mer template
Chain of Taq DNA polymerase WT (TaqEA) (P19821 whole entry): as the sequence (P19821 whole entry, change not shown) above

[19] = target: TaqHA (Thermus aquaticus, UniProt P19821 1-832, E742H); assay: as above; settings: protein: recombinant; label: 32P on 27mer; primer-template; 27 bp duplex, 5' overhang 22 nt on the 49mer template
Chain of TaqHA (P19821 whole entry E742H): as the sequence (P19821 whole entry, change not shown) above, with E742H counted along it

[20] = target: TaqQY (Thermus aquaticus, UniProt P19821 1-832, E742Q;A743Y); assay: as above; settings: protein: recombinant; label: 32P on 27mer; primer-template; 27 bp duplex, 5' overhang 22 nt on the 49mer template
Chain of TaqQY (P19821 whole entry E742Q/A743Y): as the sequence (P19821 whole entry, change not shown) above, with E742Q, A743Y counted along it

[21] = target: TaqHH (Thermus aquaticus, UniProt P19821 1-832, E742H;A743H); assay: as above; settings: protein: recombinant; label: 32P on 27mer; primer-template; 27 bp duplex, 5' overhang 22 nt on the 49mer template
Chain of TaqHH (P19821 whole entry E742H/A743H): as the sequence (P19821 whole entry, change not shown) above, with E742H, A743H counted along it

[22] = target: TaqKK (Thermus aquaticus, UniProt P19821 1-832, E742K;A743K); assay: as above; settings: protein: recombinant; label: 32P on 27mer; primer-template; 27 bp duplex, 5' overhang 22 nt on the 49mer template
Chain of TaqKK (P19821 whole entry E742K/A743K): as the sequence (P19821 whole entry, change not shown) above, with E742K, A743K counted along it

[23] = target: TaqHK (Thermus aquaticus, UniProt P19821 1-832, E742H;A743K); assay: as above; settings: protein: recombinant; label: 32P on 27mer; primer-template; 27 bp duplex, 5' overhang 22 nt on the 49mer template
Chain of TaqHK (P19821 whole entry E742H/A743K): as the sequence (P19821 whole entry, change not shown) above, with E742H, A743K counted along it

[24] = target: TaqAA (Thermus aquaticus, UniProt P19821 1-832, E742A); assay: as above; settings: protein: recombinant; label: 32P on 27mer; primer-template; 27 bp duplex, 5' overhang 22 nt on the 49mer template
Chain of TaqAA (P19821 whole entry E742A): as the sequence (P19821 whole entry, change not shown) above, with E742A counted along it

[25] = target: TaqER (Thermus aquaticus, UniProt P19821 1-832, A743R); assay: as above; settings: protein: recombinant; label: 32P on 27mer; primer-template; 27 bp duplex, 5' overhang 22 nt on the 49mer template
Chain of TaqER (P19821 whole entry A743R): as the sequence (P19821 whole entry, change not shown) above, with A743R counted along it

[26] = target: TaqKR (Thermus aquaticus, UniProt P19821 1-832, E742K;A743R); assay: as above; settings: protein: recombinant; label: 32P on 27mer; primer-template; 27 bp duplex, 5' overhang 22 nt on the 49mer template
Chain of TaqKR (P19821 whole entry E742K/A743R): as the sequence (P19821 whole entry, change not shown) above, with E742K, A743R counted along it

[27] = target: TaqRA (Thermus aquaticus, UniProt P19821 1-832, E742R); assay: as above; settings: protein: recombinant; label: 32P on 27mer; primer-template; 27 bp duplex, 5' overhang 22 nt on the 49mer template
Chain of TaqRA (P19821 whole entry E742R): as the sequence (P19821 whole entry, change not shown) above, with E742R counted along it

[28] = target: TaqRK (Thermus aquaticus, UniProt P19821 1-832, E742R;A743K); assay: as above; settings: protein: recombinant; label: 32P on 27mer; primer-template; 27 bp duplex, 5' overhang 22 nt on the 49mer template
Chain of TaqRK (P19821 whole entry E742R/A743K): as the sequence (P19821 whole entry, change not shown) above, with E742R, A743K counted along it

Chain of chimeric Taq 29-1 (Thermus aquaticus / environmental DNA chimera) (P19821 whole entry, change not shown): as the sequence (P19821 whole entry, change not shown) above

In the case of “AGCTATGACCATGATTACGAATTGCTT / AGCTACCATGCCTGCACGAATTAAGCAATTCGTAATCATGGTCATAGCT [primed DNA (27mer/49mer)]”, the Kd [1] is reported as 10 nM, the Kd [2] is reported as 10 nM and the Kd [3] is reported as 10 nM. For the same molecule, the Kd [4] was 5 nM, the Kd [5] was 6 nM and the Kd [6] was 4 nM. For the same molecule, the Kd [7] was 8 nM, the Kd [8] was 4 nM and the Kd [9] was 7 nM. The Kd [10] was 4 nM, the Kd [11] was 4 nM and the Kd [12] was 20 nM. The Kd [13] was 5 nM.

B1: primed DNA (27mer/49mer) (dsDNA)
DNA 1: AGCTATGACCATGATTACGAATTGCTT
DNA 2: AGCTACCATGCCTGCACGAATTAAGCAATTCGTAATCATGGTCATAGCT
B1 gave a Kd [14] of 6 nM, a Kd [15] of 9 nM and a Kd [16] of 6 nM. For the same molecule, the Kd [17] was 8 nM, the Kd [18] was 400 nM and the Kd [19] was 6 nM. For the same molecule, the Kd [20] was 10 nM, the Kd [21] was 6 nM and the Kd [22] was 10 nM. For the same molecule, the Kd [23] was 6 nM, the Kd [24] was 9 nM and the Kd [25] was 8 nM. The Kd [26] was 10 nM, the Kd [27] was 8 nM and the Kd [28] was 10 nM.
